Laboratory results reported in patent publication US20140087995A1 (published 2014).
Numbered stars: 1 amine (or outer) side, 2 acyl side, 3 side chain; on linkers, the order of the positions; unused ones are H or OH. Bridge positions count the residues as written; N and C are the ends. Side chains are listed from the residue outwards. Ends that are not written are not given here. * marks the point of attachment. C20 diacid = O=C(O)CCCCCCCCCCCCCCCCCCC(=O)*; γGlu = O=C(O)[C@H](CCC(=O)[*:2])N[*:1]

Legend:
rat calcitonin receptor [1] = target: T1, rat calcitonin receptor (rat, UniProt P32214 25-516); test: SPA competition with 125I-calcitonin on membranes of BHK tk'ts 13 cells with rat calcitonin receptor (Assay VIII)
T1 construct: whole, on cells; Membranes of transiently transfected BHK tk'ts 13 cells; also called rCTR; rat calcitonin (a) receptor
T1 sequence (looked up): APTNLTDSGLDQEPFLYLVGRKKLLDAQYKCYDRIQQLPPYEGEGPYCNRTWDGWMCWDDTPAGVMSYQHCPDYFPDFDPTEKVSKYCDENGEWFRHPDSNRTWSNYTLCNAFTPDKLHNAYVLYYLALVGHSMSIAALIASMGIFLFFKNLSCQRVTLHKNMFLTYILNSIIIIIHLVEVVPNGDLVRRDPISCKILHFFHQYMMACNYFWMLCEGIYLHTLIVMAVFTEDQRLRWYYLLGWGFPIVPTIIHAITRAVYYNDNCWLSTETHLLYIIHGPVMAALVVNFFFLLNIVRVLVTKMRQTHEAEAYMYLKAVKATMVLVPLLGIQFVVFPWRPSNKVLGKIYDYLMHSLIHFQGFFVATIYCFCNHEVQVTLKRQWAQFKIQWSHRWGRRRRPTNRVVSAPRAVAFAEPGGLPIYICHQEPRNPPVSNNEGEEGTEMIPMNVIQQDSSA

rat calcitonin receptor [2] = target: T1, rat calcitonin receptor; test: ratio of IC50 on rat calcitonin receptor to IC50 on rat amylin receptor (reference m40)
[3] = target: T2, rat amylin receptor (rat calcitonin receptor + rat RAMP 3) (rat, UniProt P32214 25-516; Q9JJ73 23-147); test: SPA competition with 125I-rat amylin on membranes of BHK tk'ts 13 cells with rat calcitonin receptor + rat RAMP3 (Assay VI)
T2 construct: whole, on cells; Membranes of transiently transfected BHK tk'ts 13 cells; also called rAmylin-R; rat amylin 3(a) receptor
T2 sequence (looked up) 1: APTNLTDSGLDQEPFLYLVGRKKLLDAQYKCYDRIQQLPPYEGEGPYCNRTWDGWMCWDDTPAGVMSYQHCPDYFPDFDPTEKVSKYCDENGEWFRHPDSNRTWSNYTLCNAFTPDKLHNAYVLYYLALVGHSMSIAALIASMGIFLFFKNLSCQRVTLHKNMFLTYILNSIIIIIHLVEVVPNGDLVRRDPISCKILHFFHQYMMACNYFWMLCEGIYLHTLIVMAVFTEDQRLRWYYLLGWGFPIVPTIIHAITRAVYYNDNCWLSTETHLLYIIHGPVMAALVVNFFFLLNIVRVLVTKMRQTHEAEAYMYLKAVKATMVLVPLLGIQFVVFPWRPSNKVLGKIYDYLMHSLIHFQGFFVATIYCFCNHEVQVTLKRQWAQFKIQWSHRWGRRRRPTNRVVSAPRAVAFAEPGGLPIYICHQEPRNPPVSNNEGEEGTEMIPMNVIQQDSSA
T2 sequence (looked up) 2: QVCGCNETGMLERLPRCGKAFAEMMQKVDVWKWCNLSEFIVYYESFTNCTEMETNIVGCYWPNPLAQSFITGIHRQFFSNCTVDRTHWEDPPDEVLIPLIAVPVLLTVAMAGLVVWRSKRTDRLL

[4] = target: T3, human calcitonin receptor (human, UniProt P30988 25-474); test: ratio of IC50 on human calcitonin receptor to IC50 on human amylin receptor (reference m42), SPA competition
T3 construct: whole, on cells; Membranes of stably transfected cells; also called hCTR; hCT
T3 sequence (looked up): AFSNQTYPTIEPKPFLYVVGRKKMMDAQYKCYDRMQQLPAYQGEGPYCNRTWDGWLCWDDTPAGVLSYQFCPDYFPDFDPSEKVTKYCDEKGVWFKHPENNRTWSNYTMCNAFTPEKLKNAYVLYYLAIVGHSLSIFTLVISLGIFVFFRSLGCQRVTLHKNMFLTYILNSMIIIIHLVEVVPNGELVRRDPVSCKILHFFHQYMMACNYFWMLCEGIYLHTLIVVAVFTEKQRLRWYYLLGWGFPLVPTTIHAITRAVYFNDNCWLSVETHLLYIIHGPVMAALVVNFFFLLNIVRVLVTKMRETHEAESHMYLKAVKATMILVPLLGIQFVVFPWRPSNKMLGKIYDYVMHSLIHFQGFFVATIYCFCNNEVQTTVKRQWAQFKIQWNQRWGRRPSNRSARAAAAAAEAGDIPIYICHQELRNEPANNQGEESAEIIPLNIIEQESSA
In short: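 Scintillation proximity competition binding on cell membranes at 35 ng/μL with SPA beads, in 50 mM Hepes pH 7.4, 1 mM CaCl2, 5 mM MgCl₂, 0.1% OA, 0.02% Tween20. Incubated 120 min at 25° C with shaking. IC₅₀ from one-site competition fit.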

Row | Binder | IC50 (rat calcitonin receptor [1]) | Ratio rCT/rAmylin binding (rat calcitonin receptor [2]) | IC50 [3] | Ratio hCT/hAmylin binding [4]
1 | K([γGlu-C20 diacid])CNTATCATQRLAEFLRHSSPNFGAIPSSTNVGPRTY-NH2 (disulfide 2-7; N-terminus assumed; SMILES CC[C@H](C)[C@H](NC(=O)[C@H](C)NC(=O)CNC(=O)[C@H](Cc1ccccc1)NC(=O)[C@H](CC(N)=O)NC(=O)[C@@H]1CCCN1C(=O)[C@H](CO)NC(=O)[C@H](CO)NC(=O)[C@H](Cc1c[nH]cn1)NC(=O)[C@H](CCCNC(=N)N)NC(=O)[C@H](CC(C)C)NC(=O)[C@H](Cc1ccccc1)NC(=O)[C@H](CCC(=O)O)NC(=O)[C@H](C)NC(=O)[C@H](CC(C)C)NC(=O)[C@H](CCCNC(=N)N)NC(=O)[C@H](CCC(N)=O)NC(=O)[C@@H](NC(=O)[C@H](C)NC(=O)[C@@H]1CSSC[C@H](NC(=O)[C@@H](N)CCCCNC(=O)CC[C@H](NC(=O)CCCCCCCCCCCCCCCCCCC(=O)O)C(=O)O)C(=O)N[C@@H](CC(N)=O)C(=O)N[C@@H]([C@@H](C)O)C(=O)N[C@@H](C)C(=O)N[C@@H]([C@@H](C)O)C(=O)N1)[C@@H](C)O)C(=O)N1CCC[C@H]1C(=O)N[C@@H](CO)C(=O)N[C@@H](CO)C(=O)N[C@H](C(=O)N[C@@H](CC(N)=O)C(=O)N[C@H](C(=O)NCC(=O)N1CCC[C@H]1C(=O)N[C@@H](CCCNC(=N)N)C(=O)N[C@H](C(=O)N[C@@H](Cc1ccc(O)cc1)C(N)=O)[C@@H](C)O)C(C)C)[C@@H](C)O, Synthetic acylated analogue of human amylin) | 15.4 nM | 45.5 | 0.339 nM | 38.6
2 | K([γGlu-C20 diacid])CNTATCATQRLAEFLRHSSPNFGAIPSSTNVGPHTY-NH2 (disulfide 2-7, Synthetic acylated analogue of human amylin) | 5.43 nM | 52.2 | 0.104 nM | 21.2
3 | K([γGlu-γGlu-C20 diacid])CNTATCATQRLADFLRHSSPNFGAIPSSTNVGPRTY-NH2 (disulfide 2-7, Synthetic acylated analogue of human amylin; also called compound 130) | 223 nM | 240 | 0.93 nM | 280
4 | K([γGlu-γGlu-C20 diacid])CNTATCATQRLANFLRHSSPNFGAIPSSTPVGPRTY-NH2 (disulfide 2-7; N-terminus assumed; SMILES CC[C@H](C)[C@H](NC(=O)[C@H](C)NC(=O)CNC(=O)[C@H](Cc1ccccc1)NC(=O)[C@H](CC(N)=O)NC(=O)[C@@H]1CCCN1C(=O)[C@H](CO)NC(=O)[C@H](CO)NC(=O)[C@H](Cc1c[nH]cn1)NC(=O)[C@H](CCCNC(=N)N)NC(=O)[C@H](CC(C)C)NC(=O)[C@H](Cc1ccccc1)NC(=O)[C@H](CC(N)=O)NC(=O)[C@H](C)NC(=O)[C@H](CC(C)C)NC(=O)[C@H](CCCNC(=N)N)NC(=O)[C@H](CCC(N)=O)NC(=O)[C@@H](NC(=O)[C@H](C)NC(=O)[C@@H]1CSSC[C@H](NC(=O)[C@@H](N)CCCCNC(=O)CC[C@H](NC(=O)CC[C@H](NC(=O)CCCCCCCCCCCCCCCCCCC(=O)O)C(=O)O)C(=O)O)C(=O)N[C@@H](CC(N)=O)C(=O)N[C@@H]([C@@H](C)O)C(=O)N[C@@H](C)C(=O)N[C@@H]([C@@H](C)O)C(=O)N1)[C@@H](C)O)C(=O)N1CCC[C@H]1C(=O)N[C@@H](CO)C(=O)N[C@@H](CO)C(=O)N[C@H](C(=O)N1CCC[C@H]1C(=O)N[C@H](C(=O)NCC(=O)N1CCC[C@H]1C(=O)N[C@@H](CCCNC(=N)N)C(=O)N[C@H](C(=O)N[C@@H](Cc1ccc(O)cc1)C(N)=O)[C@@H](C)O)C(C)C)[C@@H](C)O, Synthetic acylated analogue of human amylin) | 52.4 nM | 137 | 0.381 nM | 48.6
5 | K([γGlu-γGlu-C20 diacid])CNTATCATQRLAEFLRHSSPNFGAIPSSTNVGRETY-NH2 (disulfide 2-7; N-terminus assumed; SMILES CC[C@H](C)[C@H](NC(=O)[C@H](C)NC(=O)CNC(=O)[C@H](Cc1ccccc1)NC(=O)[C@H](CC(N)=O)NC(=O)[C@@H]1CCCN1C(=O)[C@H](CO)NC(=O)[C@H](CO)NC(=O)[C@H](Cc1c[nH]cn1)NC(=O)[C@H](CCCNC(=N)N)NC(=O)[C@H](CC(C)C)NC(=O)[C@H](Cc1ccccc1)NC(=O)[C@H](CCC(=O)O)NC(=O)[C@H](C)NC(=O)[C@H](CC(C)C)NC(=O)[C@H](CCCNC(=N)N)NC(=O)[C@H](CCC(N)=O)NC(=O)[C@@H](NC(=O)[C@H](C)NC(=O)[C@@H]1CSSC[C@H](NC(=O)[C@@H](N)CCCCNC(=O)CC[C@H](NC(=O)CC[C@H](NC(=O)CCCCCCCCCCCCCCCCCCC(=O)O)C(=O)O)C(=O)O)C(=O)N[C@@H](CC(N)=O)C(=O)N[C@@H]([C@@H](C)O)C(=O)N[C@@H](C)C(=O)N[C@@H]([C@@H](C)O)C(=O)N1)[C@@H](C)O)C(=O)N1CCC[C@H]1C(=O)N[C@@H](CO)C(=O)N[C@@H](CO)C(=O)N[C@H](C(=O)N[C@@H](CC(N)=O)C(=O)N[C@H](C(=O)NCC(=O)N[C@@H](CCCNC(=N)N)C(=O)N[C@@H](CCC(=O)O)C(=O)N[C@H](C(=O)N[C@@H](Cc1ccc(O)cc1)C(N)=O)[C@@H](C)O)C(C)C)[C@@H](C)O, Synthetic acylated analogue of human amylin) | 452 nM | 158 | 2.86 nM | 14.7
6 | K([γGlu-γGlu-C20 diacid])CNTATCATQRLADFLRHSSPNFGAIPSSTNVGPETY-NH2 (disulfide 2-7, Synthetic acylated analogue of human amylin) | 31.9 nM | 98.5 | 0.324 nM | 49.8
7 | K([γGlu-C20 diacid])CNTATCATQRLAHFLRHSSPNFGAIPSSTPVGPNTY-NH2 (disulfide 2-7; N-terminus assumed; SMILES CC[C@H](C)[C@H](NC(=O)[C@H](C)NC(=O)CNC(=O)[C@H](Cc1ccccc1)NC(=O)[C@H](CC(N)=O)NC(=O)[C@@H]1CCCN1C(=O)[C@H](CO)NC(=O)[C@H](CO)NC(=O)[C@H](Cc1c[nH]cn1)NC(=O)[C@H](CCCNC(=N)N)NC(=O)[C@H](CC(C)C)NC(=O)[C@H](Cc1ccccc1)NC(=O)[C@H](Cc1c[nH]cn1)NC(=O)[C@H](C)NC(=O)[C@H](CC(C)C)NC(=O)[C@H](CCCNC(=N)N)NC(=O)[C@H](CCC(N)=O)NC(=O)[C@@H](NC(=O)[C@H](C)NC(=O)[C@@H]1CSSC[C@H](NC(=O)[C@@H](N)CCCCNC(=O)CC[C@H](NC(=O)CCCCCCCCCCCCCCCCCCC(=O)O)C(=O)O)C(=O)N[C@@H](CC(N)=O)C(=O)N[C@@H]([C@@H](C)O)C(=O)N[C@@H](C)C(=O)N[C@@H]([C@@H](C)O)C(=O)N1)[C@@H](C)O)C(=O)N1CCC[C@H]1C(=O)N[C@@H](CO)C(=O)N[C@@H](CO)C(=O)N[C@H](C(=O)N1CCC[C@H]1C(=O)N[C@H](C(=O)NCC(=O)N1CCC[C@H]1C(=O)N[C@@H](CC(N)=O)C(=O)N[C@H](C(=O)N[C@@H](Cc1ccc(O)cc1)C(N)=O)[C@@H](C)O)C(C)C)[C@@H](C)O, Synthetic acylated analogue of human amylin) | 9.05 nM | 72.4 | 0.125 nM | 24.8
